Test [1] has as its target T1, Atpase secretory pathway ca2+ transporting 1 (human, UniProt P98194 1-909).
T1 construct: HuProt array protein, full-length recombinant from yeast; also called ATP2C1
T1 sequence: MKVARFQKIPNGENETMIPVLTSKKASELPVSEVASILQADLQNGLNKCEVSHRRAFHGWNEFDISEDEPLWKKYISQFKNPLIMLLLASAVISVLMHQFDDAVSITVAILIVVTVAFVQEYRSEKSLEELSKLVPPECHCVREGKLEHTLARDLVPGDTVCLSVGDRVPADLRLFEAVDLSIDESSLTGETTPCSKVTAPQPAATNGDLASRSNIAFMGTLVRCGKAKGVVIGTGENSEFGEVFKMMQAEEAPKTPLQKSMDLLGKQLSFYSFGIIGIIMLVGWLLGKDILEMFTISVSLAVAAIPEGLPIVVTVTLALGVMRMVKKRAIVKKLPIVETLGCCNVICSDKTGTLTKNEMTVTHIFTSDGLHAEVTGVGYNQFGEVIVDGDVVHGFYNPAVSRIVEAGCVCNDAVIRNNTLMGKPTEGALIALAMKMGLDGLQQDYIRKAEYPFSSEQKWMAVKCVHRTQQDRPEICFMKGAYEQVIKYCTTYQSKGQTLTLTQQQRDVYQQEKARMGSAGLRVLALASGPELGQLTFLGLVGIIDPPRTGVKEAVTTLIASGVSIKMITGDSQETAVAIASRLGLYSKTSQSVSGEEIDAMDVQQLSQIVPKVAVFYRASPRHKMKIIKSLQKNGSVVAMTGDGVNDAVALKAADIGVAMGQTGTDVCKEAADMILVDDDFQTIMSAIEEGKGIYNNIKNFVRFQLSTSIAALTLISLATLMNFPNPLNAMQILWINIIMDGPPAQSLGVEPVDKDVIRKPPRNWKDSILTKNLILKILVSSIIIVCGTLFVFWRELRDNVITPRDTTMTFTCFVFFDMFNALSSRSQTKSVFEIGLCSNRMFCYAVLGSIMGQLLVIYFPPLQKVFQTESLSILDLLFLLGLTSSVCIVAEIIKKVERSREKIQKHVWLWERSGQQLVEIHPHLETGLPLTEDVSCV

Test [2] deals with T2, teashirt zinc finger homeobox 2, transcript variant 1 (human, UniProt Q9NRE2 1-1034).
T2 construct: HuProt array protein, full-length recombinant from yeast; also called TSHZ2
T2 sequence: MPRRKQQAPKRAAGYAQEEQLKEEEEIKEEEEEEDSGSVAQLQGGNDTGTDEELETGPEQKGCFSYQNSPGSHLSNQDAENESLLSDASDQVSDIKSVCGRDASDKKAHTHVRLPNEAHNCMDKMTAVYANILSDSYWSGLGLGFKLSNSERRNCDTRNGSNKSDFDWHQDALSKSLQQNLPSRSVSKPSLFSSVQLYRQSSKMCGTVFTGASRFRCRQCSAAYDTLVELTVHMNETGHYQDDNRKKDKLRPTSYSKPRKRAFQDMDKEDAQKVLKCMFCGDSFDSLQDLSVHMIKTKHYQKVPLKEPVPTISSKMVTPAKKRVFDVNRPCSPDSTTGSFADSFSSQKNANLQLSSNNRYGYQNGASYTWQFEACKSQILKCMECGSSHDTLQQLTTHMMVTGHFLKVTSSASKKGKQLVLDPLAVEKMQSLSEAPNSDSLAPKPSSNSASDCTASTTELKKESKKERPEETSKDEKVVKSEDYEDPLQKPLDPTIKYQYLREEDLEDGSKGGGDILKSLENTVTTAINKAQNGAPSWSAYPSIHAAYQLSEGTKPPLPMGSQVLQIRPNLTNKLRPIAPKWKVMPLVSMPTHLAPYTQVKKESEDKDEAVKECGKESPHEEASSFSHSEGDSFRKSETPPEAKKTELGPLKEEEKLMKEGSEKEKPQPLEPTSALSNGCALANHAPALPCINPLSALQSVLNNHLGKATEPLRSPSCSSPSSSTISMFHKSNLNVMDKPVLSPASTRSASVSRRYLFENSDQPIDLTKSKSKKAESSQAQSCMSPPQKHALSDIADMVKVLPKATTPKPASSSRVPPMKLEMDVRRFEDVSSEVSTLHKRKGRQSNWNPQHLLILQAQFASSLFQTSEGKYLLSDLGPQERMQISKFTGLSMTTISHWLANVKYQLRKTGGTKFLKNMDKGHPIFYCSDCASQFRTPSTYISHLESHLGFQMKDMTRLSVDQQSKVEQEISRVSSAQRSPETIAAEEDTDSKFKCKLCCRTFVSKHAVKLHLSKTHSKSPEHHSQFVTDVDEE

The target of test [3] is T3, FA complementation group G (human, UniProt O15287 1-622).
T3 construct: on protein array; also called FANCG
T3 sequence: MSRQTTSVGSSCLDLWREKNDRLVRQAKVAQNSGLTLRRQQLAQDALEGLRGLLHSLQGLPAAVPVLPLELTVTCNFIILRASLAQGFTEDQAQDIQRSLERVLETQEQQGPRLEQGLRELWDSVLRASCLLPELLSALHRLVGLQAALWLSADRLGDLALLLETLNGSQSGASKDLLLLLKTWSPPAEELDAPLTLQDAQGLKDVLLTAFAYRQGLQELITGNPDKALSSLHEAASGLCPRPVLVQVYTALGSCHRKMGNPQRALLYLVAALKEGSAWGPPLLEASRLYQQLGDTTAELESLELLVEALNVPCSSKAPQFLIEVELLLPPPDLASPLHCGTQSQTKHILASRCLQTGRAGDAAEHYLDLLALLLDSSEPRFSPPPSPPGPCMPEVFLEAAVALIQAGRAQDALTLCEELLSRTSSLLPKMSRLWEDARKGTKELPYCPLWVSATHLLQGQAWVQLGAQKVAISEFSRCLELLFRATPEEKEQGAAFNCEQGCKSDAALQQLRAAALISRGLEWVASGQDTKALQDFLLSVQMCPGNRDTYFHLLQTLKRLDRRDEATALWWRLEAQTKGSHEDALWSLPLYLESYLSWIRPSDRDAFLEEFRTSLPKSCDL
In words: protein array.

Test [4] addresses T4, homeobox and leucine zipper encoding (human, UniProt Q8IX15 25-550).
T4 construct: HuProt array protein, full-length recombinant from yeast; also called HOMEZ
T4 sequence: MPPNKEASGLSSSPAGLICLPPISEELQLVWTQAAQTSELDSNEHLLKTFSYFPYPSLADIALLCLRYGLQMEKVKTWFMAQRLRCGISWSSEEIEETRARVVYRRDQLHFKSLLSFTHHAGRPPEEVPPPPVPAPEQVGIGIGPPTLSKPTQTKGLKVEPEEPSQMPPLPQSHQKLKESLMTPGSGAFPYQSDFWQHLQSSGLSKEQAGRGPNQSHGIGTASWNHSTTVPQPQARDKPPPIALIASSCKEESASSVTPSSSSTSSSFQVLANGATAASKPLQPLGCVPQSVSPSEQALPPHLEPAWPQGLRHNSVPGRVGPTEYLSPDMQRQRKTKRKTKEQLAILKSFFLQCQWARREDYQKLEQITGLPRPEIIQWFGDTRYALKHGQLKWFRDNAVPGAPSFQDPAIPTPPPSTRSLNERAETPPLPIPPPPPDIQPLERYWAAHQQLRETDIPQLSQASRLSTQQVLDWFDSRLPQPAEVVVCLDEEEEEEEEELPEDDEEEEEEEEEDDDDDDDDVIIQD

Test [5] has as its target T5, BAR/IMD domain containing adaptor protein 2, transcript variant 3 (human, UniProt Q9UQB8 1-511).
T5 construct: HuProt array protein, full-length recombinant from yeast; also called BAIAP2
T5 sequence: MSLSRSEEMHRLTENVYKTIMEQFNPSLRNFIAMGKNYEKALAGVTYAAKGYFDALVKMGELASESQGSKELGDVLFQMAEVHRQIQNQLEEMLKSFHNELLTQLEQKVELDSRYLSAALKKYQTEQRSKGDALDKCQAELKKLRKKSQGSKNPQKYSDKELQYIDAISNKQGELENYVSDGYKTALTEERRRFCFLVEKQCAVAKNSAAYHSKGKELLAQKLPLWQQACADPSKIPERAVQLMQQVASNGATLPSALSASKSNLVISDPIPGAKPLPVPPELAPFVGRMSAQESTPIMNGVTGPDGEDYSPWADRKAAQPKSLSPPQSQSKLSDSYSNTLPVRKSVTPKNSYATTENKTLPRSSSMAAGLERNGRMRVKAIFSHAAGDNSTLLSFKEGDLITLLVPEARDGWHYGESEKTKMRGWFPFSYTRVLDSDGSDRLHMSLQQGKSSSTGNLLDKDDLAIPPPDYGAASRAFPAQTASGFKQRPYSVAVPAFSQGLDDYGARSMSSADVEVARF

Test [6] has as its target T6, LIM homeobox 5 (human, UniProt Q9H2C1 1-402).
T6 construct: HuProt array protein, full-length recombinant from yeast; also called LHX5
T6 sequence: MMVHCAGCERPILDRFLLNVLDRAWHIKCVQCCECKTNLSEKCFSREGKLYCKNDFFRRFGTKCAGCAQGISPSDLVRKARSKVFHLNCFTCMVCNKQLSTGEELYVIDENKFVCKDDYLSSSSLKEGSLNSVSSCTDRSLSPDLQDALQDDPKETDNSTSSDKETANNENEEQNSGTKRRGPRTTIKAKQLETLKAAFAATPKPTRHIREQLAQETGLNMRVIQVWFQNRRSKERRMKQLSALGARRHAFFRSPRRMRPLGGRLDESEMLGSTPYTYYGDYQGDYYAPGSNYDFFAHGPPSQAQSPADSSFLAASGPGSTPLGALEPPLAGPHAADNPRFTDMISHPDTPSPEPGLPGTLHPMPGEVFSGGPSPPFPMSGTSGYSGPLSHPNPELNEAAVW

Test [7] addresses T7, growth factor receptor bound protein 2, transcript variant 1 (human, UniProt P62993 1-217).
T7 construct: HuProt array protein, full-length recombinant from yeast; also called GRB2

The target of test [8] is T8, leucine rich repeat containing 28, transcript variant 1 (human, UniProt Q86X40 1-367).
T8 construct: HuProt array protein, full-length recombinant from yeast; also called LRRC28
T8 sequence (Q86X40 whole entry, change not shown): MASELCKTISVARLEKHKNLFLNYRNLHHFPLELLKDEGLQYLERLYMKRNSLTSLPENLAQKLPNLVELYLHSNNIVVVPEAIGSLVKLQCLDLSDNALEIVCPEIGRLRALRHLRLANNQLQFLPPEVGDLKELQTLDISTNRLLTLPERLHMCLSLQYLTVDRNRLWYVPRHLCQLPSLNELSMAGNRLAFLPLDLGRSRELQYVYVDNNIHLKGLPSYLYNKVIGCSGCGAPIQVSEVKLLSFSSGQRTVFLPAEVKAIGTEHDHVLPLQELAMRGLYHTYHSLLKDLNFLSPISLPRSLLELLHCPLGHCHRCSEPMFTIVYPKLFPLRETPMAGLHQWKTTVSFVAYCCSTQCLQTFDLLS

B1: TESO1006 (antibody, V domains shown)
VH: QLHLQESGPGLVKPSETLSLTCTVSGGSVSSSSYYWGWVRQPPGKGLEWIGHVYYSGRTYYNPSLKSRATISLDTSKNQFSLKLSSLTATDTAVYYCATIVAAYSYGFEFDPWGQGILVIVSS
VL: QSVLTQPPSVSAAPGQKVTISCSGGSSNIGNNYVSWYQQLPGTAPKLIIYDNDKRPAGIPDRFSGSKSGSSATLGITGLQNGDEAEYYCGTWDSSLGGGVFGGGTKVTVLG
notes: detected with anti-human IgG Fc
Consider B1, for which the binding result in test [1] and in test [2] was “binds” throughout.

B2: TBRE1024 (antibody, V domains shown)
VH: PVQLQESGPGLVKPSETLSLTCTVSGGSISSDNYYWSWLRQHPGKGLEWIGYIYFSVTTYYNPSLKSRVTISLDTSKNQFSLKLSSVTAADTAVYYCASGYVSFDLWGQGTLVTVSS
VL: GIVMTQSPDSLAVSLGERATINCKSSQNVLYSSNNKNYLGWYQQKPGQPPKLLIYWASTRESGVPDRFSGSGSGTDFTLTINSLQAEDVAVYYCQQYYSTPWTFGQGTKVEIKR
notes: VH/VL only
For B2, the binding result in test [3] was “binds”.

B3: TCOL1006 (antibody, V domains shown)
VH: EVQLVESGGGLVQPGGSLRLSCAASGFPPRSFAMSWVRQAPGKGLEWVSSISGLGNSIYYAESVKGRFITSRDNSKSTVFLLMNSLRAEDTAVYYCAKSAFGGVPDGFDIWGQGTMVTVSS
VL: QSVVTQPPSASGPPGQTVTISCSGGRSNVASHAVHWYQHLPGTAPKLLIYNDHQRPSGVPDRFSGSKSGPSASLAISGLRSEDEADYYCATWDDSLGGRVVFGGGTKLTVLG
notes: as for B1
For B3, the binding result in test [4] and in test [5] was “binds” throughout.

B4: TCOL1009 (antibody, V domains shown)
VH: PVQLVQSGAEVKKPGASVKVSCKASGDTFPNYVISWVRQAPGQGLEWVGCINTNNGKTNYVQKLQGRVILTTDTSTNTANMELRSLRFDDTAVYYCARERGQVRSYGMDVWGQGTAVTVSS
VL: PYELTQPPSVSVSPGQTANITCSGDKLGDICVCWYQQKPGQSPVLVIYQHNKRPSGIPERFSGSNSGNTATLTISATQATDEAIYYCQSWDSSSVLFGGGTKLTVLG
notes: as for B1
For the molecule B4, the binding result in test [6] and in test [7] was “binds” each time.

B5: TESO1003 (antibody, V domains shown)
VH: QVQLVESGGGVVQPGRSLRLSCAASGFTFSNYDMHWVRQAPGKGLEWVTVVSYDGTNKYYAESVQGRFTISRDNSKNTLYLQMNSLRTEDTAVYYCAKEGGWGNTVTTSYYYYGMDVWGQGTTVTVSS
VL: QIVLTQSPATLSLSPGERATLSCRASQSVSNYLAWYQQKPGQAPRLLIYDASNRATGIPARFSGSGSGTDFTLTISSLEPEDFAVYYCQQRSNWPPYTFGQGTKLDIKR
notes: as for B1
Turning to B5, the binding result in test [8] is given as “binds”.

The values above are taken from patent US20220204643A1 (published 2022).
